Test results as given in the RNAGym collection of RNA variant scans (doi:10.7554/elife.80360).

B1: HDV Ribozyme (parent)
chain: GGCCGGCAUGGUCCCAGCCUCCUCGCUGGCGCCGGCUGGGCAACAUUCCGAGGGGACCGUCCCCUCGGUAAUGGCGAAUGGGACCCA

Variants of: B1
Assay: self-cleavage, relative activity (ratio to wild type); higher = more cleavage; co-transcriptional

Compared with G29A U72A, C30A C41A is higher in self-cleavage: 0.122 for the first, 0.429 for the second.

Compared with G29C A43U, G29A U46G is higher in self-cleavage: 0.0519 for the first, 0.166 for the second.

Going from G29A U46C to G29C C58A, the self-cleavage falls from 0.138 to 0.0755.

First: G29C A77C
Second: G29U G35C
The self-cleavage of the first is higher: 0.0639 for the first, 0 for the second.

Compared with G29C G67C, G29C C62G is higher in self-cleavage: 0.104 for the first, 0.155 for the second.

First: G29U U37C
Second: G29U U37A
The self-cleavage of the first is higher: 0.208 for the first, 0.0898 for the second.

Compared with G29C G38A, C30A C48U is higher in self-cleavage: 0 for the first, 0.533 for the second.

Compared with G29C C36U, G29C C36G is lower in self-cleavage: 0.0755 for the first, 0.0536 for the second.

Going from G29C G39C to G29C G39A, the self-cleavage falls from 0.277 to 0.0583.

Going from G29C C86A to G29C C86U, the self-cleavage rises from 0.0519 to 0.0739.

Compared with G29C G73U, G29C G73A is higher in self-cleavage: 0.0583 for the first, 0.0707 for the second.

Going from G29C G73C to C30A G76U, the self-cleavage rises from 0.095 to 0.554.

Compared with C30A G76A, C30A G76C is lower in self-cleavage: 0.585 for the first, 0.464 for the second.

First: C30G A77C
Second: C30G A77G
The self-cleavage of the first is lower: 0.095 for the first, 0.189 for the second.

Going from C30A A43G to C30A A43C, the self-cleavage falls from 0.0739 to 0.0326.

First: C30A G68A
Second: C30A G68U
The self-cleavage of the first is lower: 0.411 for the first, 0.569 for the second.

First: G29U A45G
Second: G29U A45C
The self-cleavage of the first is lower: 0.0923 for the first, 0.113 for the second.

Compared with G29U A70U, G29U A70G is lower in self-cleavage: 0.0923 for the first, 0.0396 for the second.

First: G29U A70C
Second: G29U A71C
The self-cleavage of the first is higher: 0.0791 for the first, 0.0302 for the second.

Compared with G29U A71G, G29C C33A is lower in self-cleavage: 0.162 for the first, 0.0959 for the second.

First: G29U U65C
Second: G29U U65G
The self-cleavage of the first is higher: 0.173 for the first, 0.0755 for the second.

Going from G29U C32A to G29U C32U, the self-cleavage falls from 0.135 to 0.0665.

First: G29U C84U
Second: G29U C84G
The self-cleavage of the first is higher: 0.0594 for the first, 0.0277 for the second.

Compared with G29U A51U, G29U A51G is lower in self-cleavage: 0.169 for the first, 0.0692 for the second.

Compared with C30A C85G, C30A C85U is higher in self-cleavage: 0.509 for the first, 0.554 for the second.

First: C30A C85A
Second: C30G C85A
The self-cleavage of the first is higher: 0.295 for the first, 0.0308 for the second.

Going from G29C A78U to G29U G67C, the self-cleavage rises from 0.0773 to 0.136.

First: G29U G67U
Second: G29U G67A
The self-cleavage of the first is lower: 0.0817 for the first, 0.12 for the second.

First: G29U G82C
Second: G29U G82U
The self-cleavage of the first is lower: 0.0545 for the first, 0.095 for the second.

First: G29C A83C
Second: C30A C49G
The self-cleavage of the first is lower: 0.142 for the first, 0.232 for the second.

Going from C30A C49U to G29C U72A, the self-cleavage falls from 0.615 to 0.

Compared with G29C U72G, C30A A56G is higher in self-cleavage: 0.208 for the first, 0.529 for the second.

First: C30A C58G
Second: C30G G31C
The self-cleavage of the first is higher: 0.596 for the first, 0.104 for the second.

Going from C30G G31U to G29C A51G, the self-cleavage falls from 0.126 to 0.

Compared with C30A G53C, C30G A56G is lower in self-cleavage: 0.47 for the first, 0.0941 for the second.

First: C30G A56U
Second: C30A C62U
The self-cleavage of the first is lower: 0.116 for the first, 0.423 for the second.

G29C G50U and C30G C44G are the same in self-cleavage: 0 for the first, 0 for the second.

First: C30G C44U
Second: G29A G67A
The self-cleavage of the first is lower: 0.0213 for the first, 0.0791 for the second.

First: G29A G67C
Second: G29A G67U
The self-cleavage of the first is higher: 0.237 for the first, 0.231 for the second.

First: G29U C86G
Second: G29U C86A
The self-cleavage of the first is lower: 0.0346 for the first, 0.169 for the second.

Going from C30A A77U to G29U C63A, the self-cleavage rises from 0.0354 to 0.106.

Compared with G29U C63G, G29U C57A is higher in self-cleavage: 0.0386 for the first, 0.151 for the second.

Compared with G29U C57G, C30G A78C is lower in self-cleavage: 0.198 for the first, 0.0744 for the second.

First: C30G A78U
Second: C30G A78G
The self-cleavage of the first is lower: 0.0678 for the first, 0.0923 for the second.

Compared with C30A C84U, C30A C84A is higher in self-cleavage: 0.13 for the first, 0.295 for the second.

First: C30A A83C
Second: C30A A83G
The self-cleavage of the first is lower: 0.0811 for the first, 0.127 for the second.

First: C30G C49U
Second: C30G C49A
The self-cleavage of the first is lower: 0.0511 for the first, 0.116 for the second.

Going from C30G C49G to G29C G68C, the self-cleavage falls from 0.203 to 0.0449.

Compared with G29A U65C, G29A U65A is lower in self-cleavage: 0.17 for the first, 0.0627 for the second.

First: C30G C57G
Second: C30G C57A
The self-cleavage of the first is higher: 0.208 for the first, 0.138 for the second.

Going from C30A C63U to C30A C63G, the self-cleavage falls from 0.415 to 0.251.

Compared with C30A A87C, C30A U60C is lower in self-cleavage: 0.596 for the first, 0.582 for the second.

First: G29A G68U
Second: G29A G68A
The self-cleavage of the first is lower: 0.0841 for the first, 0.107 for the second.

Compared with G29A G68C, C30G C64U is higher in self-cleavage: 0.111 for the first, 0.126 for the second.

Compared with C30G C64G, C30G C64A is lower in self-cleavage: 0.0396 for the first, 0.0361 for the second.

First: C30A C44G
Second: C30A C44A
The self-cleavage of the first is lower: 0.0831 for the first, 0.208 for the second.

Going from G29A U60C to G29A U60G, the self-cleavage falls from 0.0997 to 0.0923.

Compared with G29A U47A, C30G A83C is lower in self-cleavage: 0.148 for the first, 0.0489 for the second.

Compared with G29C U60G, G29C U60C is lower in self-cleavage: 0.199 for the first, 0.0449 for the second.

Going from G29C G80C to G29A G54C, the self-cleavage rises from 0.0308 to 0.113.

First: G29A G54A
Second: G29C A70G
The self-cleavage of the first is lower: 0.0989 for the first, 0.101 for the second.

Going from G29C A70C to G29C A70U, the self-cleavage rises from 0.0536 to 0.0811.

Going from G29U A77U to G29U A77C, the self-cleavage rises from 0.117 to 0.13.

First: G29C G81A
Second: C30A C36G
The self-cleavage of the first is lower: 0.0639 for the first, 0.148 for the second.

Compared with C30G G34C, C30G G34U is lower in self-cleavage: 0.107 for the first, 0.0449 for the second.

First: C30G G34A
Second: C30A G73C
The self-cleavage of the first is lower: 0 for the first, 0.119 for the second.

Going from C30A G73A to G29U G31C, the self-cleavage falls from 0.237 to 0.141.

Going from C30A G80C to G29C C41U, the self-cleavage falls from 0.272 to 0.0297.

First: G29C C41G
Second: G29C C41A
The self-cleavage of the first is higher: 0.229 for the first, 0 for the second.

Going from G29A G74U to C30G C48U, the self-cleavage rises from 0.073 to 0.241.

Going from G29C C63G to G29C C63U, the self-cleavage falls from 0.0489 to 0.

Going from G29C C63A to G29C G31A, the self-cleavage falls from 0.117 to 0.0875.

First: G29C G59C
Second: C30G A70C
The self-cleavage of the first is higher: 0.123 for the first, 0.106 for the second.

First: C30A A71G
Second: C30A A71C
The self-cleavage of the first is higher: 0.517 for the first, 0.345 for the second.

Compared with C30A G74U, C30A G74A is lower in self-cleavage: 0.223 for the first, 0.123 for the second.

Compared with G29C U65C, G29U A87U is lower in self-cleavage: 0.138 for the first, 0.111 for the second.

First: G29A G81U
Second: C30G A87G
The self-cleavage of the first is higher: 0.125 for the first, 0.0702 for the second.

Going from C30G A87U to C30A G59A, the self-cleavage rises from 0.14 to 0.561.

First: G29C U79A
Second: G29C U79G
The self-cleavage of the first is higher: 0.147 for the first, 0 for the second.

Compared with C30A C33U, C30A C33G is lower in self-cleavage: 0.15 for the first, 0.128 for the second.

Going from C30A C33A to G29C C75A, the self-cleavage rises from 0.0615 to 0.138.

Compared with G29U A56G, G29U A56C is lower in self-cleavage: 0.227 for the first, 0.202 for the second.

First: G29U C44G
Second: G29U C44A
The self-cleavage of the first is higher: 0.0326 for the first, 0.0297 for the second.

With C30A C86G the self-cleavage was 0.475.
